From patent US20210401786A1, “COMPOSITION FOR TREATING BURN WOUNDS” (priority 2020, published 2021)

Tested on: human non-healing burn wounds
Assay: Wound healing in patients with non-healing burn wounds
Type: in vivo
Details: for Wound healing time (X +/− S): patients, completely healed cases
Procedure: In this application, medical records of 430 patients, including 368 male and 60 female, aged from 1 to 70 years old, with a clinical diagnosis of at least one non-healing burn wound were collected. The burn injury includes 150 cases of hydrothermal burns, 167 cases of flame burns, 84 cases of electric burns, and 29 cases of chemical burns. […] The non-healing wounds of 430 patients were treated with the composition of Example 3 of the present invention (49 cases), surgery (197 cases), and conventional treatment (rhEGF therapy) (184 cases). There were no statistically significant differences observed among the groups in terms of gender, age, and wound area (p>0.05) (The comparison results of the differences in terms of various factors are shown in Tables 5, 6 and 7).
Among the 49 patients in the present invention, the wound was completely healed in 31 cases (63.27%), effectively healed in 15 cases (30.61%), improved in 2 cases (4.08%), and not healed in 1 case (2.04%). Among the 197 patients in the surgery group, the wound was completely healed in 152 cases (77.15%), effectively healed in 39 cases (19.80%), improved in 6 cases (3.05%), and not healed in 0 case (0%). Among the 184 patients in the conventional treatment group, the wound was completely healed in 96 cases (52.17%), effectively healed in 56 cases (30.43%), improved in 24 cases (13.05%), and not healed in 8 cases (4.35%). The effect of the present invention on wound healing is analyzed by the total effective rate after receiving different treatments. The total effective rate=(the number of completely healed cases+the number of effectively healed cases)/total number of cases.
The wound healing time of the present invention group, surgery group and conventional dressing group is 19.87±9.10 days, 22.71±11.77 days and 36.71±10.60 days, respectively. […] There is no significant difference in wound healing time between the present invention group and the surgery group (P>0.05).

[1] = patients with non-healing burn wounds
[2] = patients with non-healing burn wounds, listed as conventional treatment

B1: Conventional treatment: conventional treatment (rhEGF therapy) of patients' non-healing burn wounds (protein, UniProt P01133 23-1207, looked up)
Pro-epidermal growth factor: PQHWSCPEGTLAGNGNSTCVGPAPFLIFSHGNSIFRIDTEGTNYEQLVVDAGVSVIMDFHYNEKRIYWVDLERQLLQRVFLNGSRQERVCNIEKNVSGMAINWINEEVIWSNQQEGIITVTDMKGNNSHILLSALKYPANVAVDPVERFIFWSSEVAGSLYRADLDGVGVKALLETSEKITAVSLDVLDKRLFWIQYNREGSNSLICSCDYDGGSVHISKHPTQHNLFAMSLFGDRIFYSTWKMKTIWIANKHTGKDMVRINLHSSFVPLGELKVVHPLAQPKAEDDTWEPEQKLCKLRKGNCSSTVCGQDLQSHLCMCAEGYALSRDRKYCEDVNECAFWNHGCTLGCKNTPGSYYCTCPVGFVLLPDGKRCHQLVSCPRNVSECSHDCVLTSEGPLCFCPEGSVLERDGKTCSGCSSPDNGGCSQLCVPLSPVSWECDCFPGYDLQLDEKSCAASGPQPFLLFANSQDIRHMHFDGTDYGTLLSQQMGMVYALDHDPVENKIYFAHTALKWIERANMDGSQRERLIEEGVDVPEGLAVDWIGRRFYWTDRGKSLIGRSDLNGKRSKIITKENISQPRGIAVHPMAKRLFWTDTGINPRIESSSLQGLGRLVIASSDLIWPSGITIDFLTDKLYWCDAKQSVIEMANLDGSKRRRLTQNDVGHPFAVAVFEDYVWFSDWAMPSVMRVNKRTGKDRVRLQGSMLKPSSLVVVHPLAKPGADPCLYQNGGCEHICKKRLGTAWCSCREGFMKASDGKTCLALDGHQLLAGGEVDLKNQVTPLDILSKTRVSEDNITESQHMLVAEIMVSDQDDCAPVGCSMYARCISEGEDATCQCLKGFAGDGKLCSDIDECEMGVPVCPPASSKCINTEGGYVCRCSEGYQGDGIHCLDIDECQLGEHSCGENASCTNTEGGYTCMCAGRLSEPGLICPDSTPPPHLREDDHHYSVRNSDSECPLSHDGYCLHDGVCMYIEALDKYACNCVVGYIGERCQYRDLKWWELRHAGHGQQQKVIVVAVCVVVLVMLLLLSLWGAHYYRTQKLLSKNPKNPYEESSRDVRSRRPADTEDGMSSCPQPWFVVIKEHQDLKNGGQPVAGEDGQAADGSMQPTSWRQEPQLCGMGTEQGCWIPVSSDKGSCPQVMERSFHMPSYGTQTLEGGVEKPHSLLSANPLWQQRALDPPHQMELTQ
modifications: Pro-epidermal growth factor
notes: conventional treatment (rhEGF therapy) of patients' non-healing burn wounds
Total effective rate (%) ((completely healed + effectively healed cases)/total number of cases): 82.61% ^
Completely healed case (%) [1]: (52.17%)
Completely healed case, number [1]: 96 cases
Effectively healed case (%) [1]: (30.43%)
Effectively healed case, number [1]: 56 cases
Improved case (%) [1]: (13.05%)
Improved case, number [1]: 24 cases
Not healed case (%) [1]: (4.35%)
Not healed case, number [1]: 8 cases
Completely healed case (%) [2]: 52.17%
Effectively healed case (%) [2]: 30.43%
Improved case (%) [2]: 13.05%
Not healed case (%) [2]: 4.35%
Wound healing time (X +/− S): 36.71 ± 10.60^ days
Wound healing time (X +/− S) (listed as conventional dressing): 36.71 ± 10.60 days
